Consider 5 molecules from paper PMC5910394, “Mechanically interlocked functionalization of monoclonal antibodies” (Nature Communications, 2018).

Positions of bridges follow the written chain, without caps; N, C: chain ends. Non-standard residues stand in square brackets, D forms with d. Groups on a side chain read outwards from the residue. No end group written: not given here. *: point of attachment. Dip = N[C@H](C(=O)O)C(c1ccccc1)c1ccccc1; azide = [N-]=[N+]=N*

Assay [1] addresses anti-HER2 memAb (trastuzumab-based, meditope-enabled anti-HER2 antibody). Kind of assay: SPR; memAb variant amine-coupled to a CM5 chip, peptide flowed over at 30 uL/min, HBS-EP+, 25 °C, Biacore T100, 1:1 binding model.
Assay [2] addresses Ile83Glu anti-HER2 memAb. The experiment in a line: SPR; memAb variant amine-coupled to a CM5 chip, peptide flowed over, HBS-EP+; temperature not told for this result (25 °C or 37 °C).
For assay [3], the target named is anti-HER2 memAb (trastuzumab-based, meditope-enabled anti-HER2 antibody). Kind of assay: SPR; memAb variant amine-coupled to a CM5 chip, peptide flowed over at 30 uL/min, HBS-EP+, 37 °C, Biacore T100, 1:1 binding model.
Assay [4] deals with Ile83Glu memAb anti-HER2 IgG. The experiment in a line: SPR; Ile83Glu memAb anti-HER2 IgG immobilized on the sensor chip, 37 °C, n=1, analyte as a two-fold dilution series from 500 pM to 39 pM, 1:1 interaction model.
Assay [5] has as its target memAb anti-HER2 (meditope-enabled, trastuzumab-based anti-HER2 antibody). Kind of assay: SPR; memAb anti-HER2 amine-coupled on a CM5 chip, meditope flowed over at 30 uL/min, HBS-EP+, 25 °C, 1:1 model, global fit, n=1 (authors estimate the error at 10-50%).
In assay [6] the target is Ile83Glu memAb anti-HER2 IgG. Kind of assay: SPR; Ile83Glu memAb anti-HER2 amine-coupled on a CM5 chip, meditope flowed over at 30 uL/min, HBS-EP+, 37 °C, 1:1 model, global fit, n=4, standard deviation.
For assay [7], the target named is Ile83Glu memAb anti-HER2 IgG. The experiment in a line: SPR; Ile83Glu memAb anti-HER2 amine-coupled on a CM5 chip, meditope flowed over at 30 uL/min, HBS-EP+, 25 °C, 1:1 model, global fit, n=1 (authors estimate the error at 10-50%).
Assay [8] has as its target memAb anti-HER2 (meditope-enabled, trastuzumab-based anti-HER2 antibody). Kind of assay: SPR; memAb anti-HER2 amine-coupled on a CM5 chip, meditope flowed over at 30 uL/min, HBS-EP+, 37 °C, 1:1 model, global fit, n=1 (authors estimate the error at 10-50%).
Assay [9] deals with Ile83Glu anti-HER2 memAb. Kind of assay: SPR; memAb variant amine-coupled to a CM5 chip, peptide flowed over at 30 uL/min, HBS-EP+, 25 °C, Biacore T100, 1:1 binding model.
The target of assay [10] is Ile83Glu anti-HER2 memAb. The experiment in a line: SPR; memAb variant amine-coupled to a CM5 chip, peptide flowed over at 30 uL/min, HBS-EP+, 37 °C, Biacore T100, 1:1 binding model.

Ile83Glu anti-HER2 memAb, sequence (heavy, as listed by the source, chain 1 of 2): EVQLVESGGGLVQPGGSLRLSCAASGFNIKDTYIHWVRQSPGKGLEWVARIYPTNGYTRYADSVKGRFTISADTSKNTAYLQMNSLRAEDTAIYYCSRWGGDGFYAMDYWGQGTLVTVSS
Ile83Glu anti-HER2 memAb, sequence (light, as listed by the source, chain 2 of 2): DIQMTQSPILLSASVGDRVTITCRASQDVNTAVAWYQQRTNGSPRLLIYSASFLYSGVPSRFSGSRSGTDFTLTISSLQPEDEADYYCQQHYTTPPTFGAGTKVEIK
Ile83Glu memAb anti-HER2 IgG, sequence (heavy, as listed by the source, chain 1 of 2): as the sequence (heavy, as listed by the source, chain 1 of 2) above
anti-HER2 memAb (trastuzumab-based, meditope-enabled anti-HER2 antibody), sequence (heavy, as listed by the source, chain 1 of 2): as above
anti-HER2 memAb (trastuzumab-based, meditope-enabled anti-HER2 antibody), sequence (light, as listed by the source, chain 2 of 2): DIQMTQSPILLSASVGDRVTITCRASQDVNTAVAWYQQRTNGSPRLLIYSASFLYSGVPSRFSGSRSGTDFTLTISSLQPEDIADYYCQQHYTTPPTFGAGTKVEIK
memAb anti-HER2 (meditope-enabled, trastuzumab-based anti-HER2 antibody), sequence (heavy, as listed by the source, chain 1 of 2): as the sequence (heavy, as listed by the source, chain 1 of 2) above

B1: original meditope (…) (peptide)
peptide: CQFDLSTRRLKC
modifications: disulfide 1-12 (inferred)
In the case of B1, the Kd stood at 1200 nM in assay [1], 23 nM in the assay with Ile83Glu anti-HER2 memAb [2] and 1000 nM in [3]. The molecule also returned a half-life in assay [3] of 0.267 min.

B2: 5-diphenylalanine-8-Arg-(PEG)2-azidomeditope (peptide)
peptide: Ac-CQFD[Dip]STR([(PEG)2-azide])RLRCGGSK
modifications: disulfide 1-12 (inferred); also: arginine-(PEG)2-azide at position 8 by name (footnote: 9th place)
Regarding B2, in [4], the dissociation rate constant (koff) turned out to be 0.00014 s⁻¹ and the kon is 66000 M⁻¹ s⁻¹.

B3: original meditope … (peptide)
peptide: CQFDLSTRRLKC
modifications: disulfide 1-12
On to B3, for which the koff was 0.016 s⁻¹ in assay [5], 0.0025 s⁻¹ in [6], 0.00059 s⁻¹ in assay [7] and 0.044 s⁻¹ in [8]. Moreover, the kon in [5] is 13000 M⁻¹ s⁻¹; in [6], 260000 M⁻¹ s⁻¹; in assay [7], 26000 M⁻¹ s⁻¹; in assay [8], 44000 M⁻¹ s⁻¹. Moreover, in assay [6], the Kd amounted to 20 nM.

B4: 5-diphenylalanine long meditope ((Ac)CQFDA(Ph)2…) (peptide)
peptide: Ac-CQFD[Dip]STRRLRCGGSK
modifications: disulfide 1-12 (inferred)
On to B4, for which, in the assay with Ile83Glu anti-HER2 memAb [9], the equilibrium dissociation constant (Kd) is under 0.026 nM and the off-rate constant (koff) was under 1e-05 s⁻¹. Further, in the assay with Ile83Glu anti-HER2 memAb [10], the Kd came out at 0.4 nM and the half-life was 40 min.

B5: long meditope (Ac)… (peptide)
peptide: Ac-CQFDLSTRRLRCGGSK
modifications: disulfide 1-12 (inferred)
On to B5, for which the dissociation constant Kd was 210 nM in assay [5], 4 nM in assay [6], 0.44 nM in [7] and 350 nM in [8]. Further, the off-rate constant (koff) was 0.006 s⁻¹ in assay [5], 0.00063 s⁻¹ in assay [6], 0.00031 s⁻¹ in [7] and 0.026 s⁻¹ in assay [8]. The kon was 28000 M⁻¹ s⁻¹ in assay [5], 160000 M⁻¹ s⁻¹ in [6], 710000 M⁻¹ s⁻¹ in assay [7] and 75000 M⁻¹ s⁻¹ in assay [8].
